Assay results taken from patent US20250136688A1 (Janssen / Centocor, published 2025).

Assays:
Human CD3 epsilon = target: T1, Human CD3 epsilon (human, UniProt P07766 23-207); assay: flow cytometry on primary T cells, 1 hour at 37 °C
T1 construct: Stood on human T cells (pan-T cells, isolated donor T cells) as part of the TCR/CD3 complex; the other chains of the complex are not written here; also called CD3ε; CD3R

cynomolgus monkey CD3 = target: T2, cynomolgus monkey CD3 (cynomolgus monkey, UniProt Q95LI5 22-198); assay: not described
T2 construct: whole, on cells; also called cyno CD3; NHP CD3

human GUCY2C [1] = target: T3, human GUCY2C (human, UniProt P25092 24-1073); assay: flow cytometry on T84 cells, 1 hour at 37 °C
T3 construct: whole, on cells; also called huGUCY2C; guanylate cyclase 2C

human GUCY2C [2] = target: T3, human GUCY2C; assay: cell-based or functional assay

T3 sequence (P25092 24-1073): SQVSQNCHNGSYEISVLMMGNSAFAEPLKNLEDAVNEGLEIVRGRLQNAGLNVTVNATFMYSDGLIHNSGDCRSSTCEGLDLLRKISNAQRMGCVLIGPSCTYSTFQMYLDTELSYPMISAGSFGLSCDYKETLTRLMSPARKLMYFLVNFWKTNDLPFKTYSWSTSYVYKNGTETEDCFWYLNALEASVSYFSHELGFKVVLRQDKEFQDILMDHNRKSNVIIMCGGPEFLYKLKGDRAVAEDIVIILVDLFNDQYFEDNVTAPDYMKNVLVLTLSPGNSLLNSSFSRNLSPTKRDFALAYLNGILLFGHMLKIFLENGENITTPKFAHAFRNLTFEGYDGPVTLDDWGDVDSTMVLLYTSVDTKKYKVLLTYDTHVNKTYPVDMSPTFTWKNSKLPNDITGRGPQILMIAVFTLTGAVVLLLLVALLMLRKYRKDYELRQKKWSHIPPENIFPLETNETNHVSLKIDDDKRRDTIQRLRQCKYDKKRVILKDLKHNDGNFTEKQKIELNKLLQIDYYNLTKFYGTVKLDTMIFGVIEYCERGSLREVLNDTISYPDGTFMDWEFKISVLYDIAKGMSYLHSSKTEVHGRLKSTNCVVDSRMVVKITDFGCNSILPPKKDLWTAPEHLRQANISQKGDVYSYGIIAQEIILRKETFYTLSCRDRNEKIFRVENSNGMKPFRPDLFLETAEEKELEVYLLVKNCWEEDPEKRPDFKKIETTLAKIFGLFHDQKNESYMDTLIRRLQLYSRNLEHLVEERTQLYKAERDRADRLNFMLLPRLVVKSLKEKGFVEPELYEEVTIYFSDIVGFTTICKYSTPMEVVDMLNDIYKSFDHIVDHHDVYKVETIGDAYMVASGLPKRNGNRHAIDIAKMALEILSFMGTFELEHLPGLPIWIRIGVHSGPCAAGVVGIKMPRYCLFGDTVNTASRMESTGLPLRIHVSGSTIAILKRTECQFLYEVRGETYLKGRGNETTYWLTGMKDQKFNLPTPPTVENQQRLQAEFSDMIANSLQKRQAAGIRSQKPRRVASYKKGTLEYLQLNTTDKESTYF
T2 sequence (Q95LI5 22-198): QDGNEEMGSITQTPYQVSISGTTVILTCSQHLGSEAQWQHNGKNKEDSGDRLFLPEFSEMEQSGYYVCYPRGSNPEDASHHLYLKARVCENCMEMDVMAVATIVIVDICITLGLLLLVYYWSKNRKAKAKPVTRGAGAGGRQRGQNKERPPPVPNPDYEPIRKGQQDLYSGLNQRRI
T1 sequence (P07766 23-207 limits assumed): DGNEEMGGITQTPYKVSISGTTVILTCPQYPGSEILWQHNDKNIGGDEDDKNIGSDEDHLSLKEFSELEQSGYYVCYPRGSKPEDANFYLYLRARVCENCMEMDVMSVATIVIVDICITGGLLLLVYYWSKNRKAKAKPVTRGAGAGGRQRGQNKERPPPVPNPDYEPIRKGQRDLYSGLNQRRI

EC50 (Human CD3 epsilon): 108 nM | binding result (cynomolgus monkey CD3): no binding | EC50 (human GUCY2C [1]): 12 nM
B1: GUCY2C×CD3_biAb-1 (bispecific antibody, human IgG1, kappa, L234A L235A)
heavy: QVQLQESGPGLVKPSETLSLTCTVSGASISHYYWSWIRRPAGKGLEWIGRIYTSGSTNYNPSLKSRVTVSVDTSKNQFSLKLSSVTAADTAVYYCARDRYTGYFDLWGRGTLVTVSSASTKGPSVFPLAPSSKSTSGGTAALGCLVKDYFPEPVTVSWNSGALTSGVHTFPAVLQSSGLYSLSSVVTVPSSSLGTQTYICNVNHKPSNTKVDKKVEPKSCDKTHTCPPCPAPEAAGGPSVFLFPPKPKDTLMISRTPEVTCVVVSVSHEDPEVKFNWYVDGVEVHNAKTKPREEQYNSTYRVVSVLTVLHQDWLNGKEYKCKVSNKALPAPIEKTISKAKGQPREPQVYTLPPSREEMTKNQVSLSCAVKGFYPSDIAVEWESNGQPENNYKTTPPVLDSDGSFFLVSKLTVDKSRWQQGNVFSCSVMHEALHNRFTQKSLSLSPGK
light: not shown
chain: EIVLTQSPATLSASPGERVTLSCSASSSVSYMNWYQQKPGCAPRRWIYDSSKLASGVPARFSGSGSGRDYTLTISSLEPEDFAVYYCQQWSRNPPTFGGGTKVEIKGGGSGGSGGCPPCGGSGGQVQLVQSGAEVKKPGSSVKVSCKASGYTFTRSTMHWVKQAPGQGLEWIGYINPSSAYTNYNQKFQGRVTLTADKSTSTAYMELSSLRSEDTAVYYCASPQVHYDYAGFPYWGCGTLVTVSSEPKSSDKTHTCPPCPAPEAAGGPSVFLFPPKPKDTLMISRTPEVTCVVVSVSHEDPEVKFNWYVDGVEVHNAKTKPREEQYNSTYRVVSVLTVLHQDWLNGKEYKCKVSNKALPAPIEKTISKAKGQPREPQVYTLPPSREEMTKNQVSLWCLVKGFYPSDIAVEWESNGQPENNYKTTPPVLDSDGSFFLYSKLTVDKSRWQQGNVFSCSVMHEALHNHYTQKSLSLSPGK
notes: HC2 = CD3_spFv-1-Fc (knob); IgG1 with L234A/L235A/D265S; also called GUCY2CxCD3 bisp-Ab1; GUCY2C-CD3-bisp-Ab1
Tumor killing EC50 (nM), HT-55 (human GUCY2C [2]): 0.8 nM | Tumor killing EC50 (nM), LS1034 (human GUCY2C [2]): 0.04 nM
